Source: the supplement of paper PMC9112550, “Optimization of the antimicrobial peptide Bac7 by deep mutational scanning” (BMC Biology, 2022)

tested on: Escherichia coli TOP10; assay: shrunken log2 fold change of peptide-encoding DNA abundance (4.5 h post-induction vs induction); higher = less antimicrobial activity (less host growth inhibition); details: time post-induction: 4.5 h; library: site-saturation at positions 5, 18, 19, 20
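Also: peptides expressed intracellularly from a pBAD plasmid library in pooled LB shake-flask culture, induced with 0.3% L-arabinose, DNA abundance read by NGS, three biological replicates, DESeq2 with apeglm shrinkage.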

Row | Sequence | shrunken log2 fold change
1 | RRIRPRPPRLPRPRPRPDDWPRP | 0.247
2 | RRIRPRPPRLPRPRPRPDEEPRP | 0.0245
3 | RRIRPRPPRLPRPRPRPDFQPRP | 0.262
4 | RRIRPRPPRLPRPRPRPDGNPRP | 0.0274
5 | RRIRPRPPRLPRPRPRPDHDPRP | -0.306
6 | RRIRPRPPRLPRPRPRPDILPRP | -0.51
7 | RRIRPRPPRLPRPRPRPDKKPRP | -0.429
8 | RRIRPRPPRLPRPRPRPDKRPRP | 0.00792
9 | RRIRPRPPRLPRPRPRPDLCPRP | -0.0739
10 | RRIRPRPPRLPRPRPRPDMIPRP | 0.249
11 | RRIRPRPPRLPRPRPRPDNCPRP | -0.197
12 | RRIRPRPPRLPRPRPRPDNFPRP | -1.15
13 | RRIRPRPPRLPRPRPRPDNLPRP | -0.35
14 | RRIRPRPPRLPRPRPRPDRCPRP | 0.584
15 | RRIRPRPPRLPRPRPRPDSDPRP | 0.0303
16 | RRIRPRPPRLPRPRPRPDTCPRP | -0.594
17 | RRIRPRPPRLPRPRPRPDWFPRP | 0.0805
18 | RRIRPRPPRLPRPRPRPDWKPRP | 0.286
19 | RRIRPRPPRLPRPRPRPDWMPRP | -0.212
20 | RRIRPRPPRLPRPRPRPDWRPRP | 0.321
21 | RRIRPRPPRLPRPRPRPDYCPRP | -0.367
22 | RRIRPRPPRLPRPRPRPDYGPRP | 0.014

Row | Sequence | shrunken log2 fold change
23 | RRIRPRPPRLPRPRPRPDYVPRP | -0.343
24 | RRIRPRPPRLPRPRPRPECNPRP | -0.0298
25 | RRIRPRPPRLPRPRPRPEDDPRP | 0.413
26 | RRIRPRPPRLPRPRPRPEENPRP | 0.163
27 | RRIRPRPPRLPRPRPRPEESPRP | -0.0202
28 | RRIRPRPPRLPRPRPRPEFFPRP | -0.00122
29 | RRIRPRPPRLPRPRPRPEFPPRP | -0.00714
30 | RRIRPRPPRLPRPRPRPEHCPRP | -0.034
31 | RRIRPRPPRLPRPRPRPEIHPRP | -0.536
32 | RRIRPRPPRLPRPRPRPEKSPRP | 0.264
33 | RRIRPRPPRLPRPRPRPELNPRP | 0.117
34 | RRIRPRPPRLPRPRPRPELYPRP | 0.0891
35 | RRIRPRPPRLPRPRPRPEMIPRP | -0.0258
36 | RRIRPRPPRLPRPRPRPEMLPRP | 0.16
37 | RRIRPRPPRLPRPRPRPEPCPRP | 0.215
38 | RRIRPRPPRLPRPRPRPEPEPRP | 0.433
39 | RRIRPRPPRLPRPRPRPEQKPRP | 0.000209
40 | RRIRPRPPRLPRPRPRPEQPPRP | 0.184
41 | RRIRPRPPRLPRPRPRPEQRPRP | 0.124
42 | RRIRPRPPRLPRPRPRPETRPRP | 0.187
43 | RRIRPRPPRLPRPRPRPEVTPRP | 0.198
44 | RRIRPRPPRLPRPRPRPEWIPRP | -0.0215

Row | Sequence | shrunken log2 fold change
45 | RRIRPRPPRLPRPRPRPEWTPRP | 0.22
46 | RRIRPRPPRLPRPRPRPEYYPRP | -0.335
47 | RRIRPRPPRLPRPRPRPFACPRP | -0.0209
48 | RRIRPRPPRLPRPRPRPFADPRP | 0.174
49 | RRIRPRPPRLPRPRPRPFAMPRP | 0.0938
50 | RRIRPRPPRLPRPRPRPFAVPRP | -0.113
51 | RRIRPRPPRLPRPRPRPFCAPRP | 0.0563
52 | RRIRPRPPRLPRPRPRPFCRPRP | 0.00205
53 | RRIRPRPPRLPRPRPRPFDAPRP | 0.0141
54 | RRIRPRPPRLPRPRPRPFDIPRP | -0.395
55 | RRIRPRPPRLPRPRPRPFENPRP | -0.00884
56 | RRIRPRPPRLPRPRPRPFEYPRP | -0.0601
57 | RRIRPRPPRLPRPRPRPFFEPRP | 0.229
58 | RRIRPRPPRLPRPRPRPFFGPRP | 0.0908
59 | RRIRPRPPRLPRPRPRPFFMPRP | -0.196
60 | RRIRPRPPRLPRPRPRPFFNPRP | -0.365
61 | RRIRPRPPRLPRPRPRPFFRPRP | -0.0565
62 | RRIRPRPPRLPRPRPRPFGRPRP | -0.314
63 | RRIRPRPPRLPRPRPRPFHHPRP | -0.763
64 | RRIRPRPPRLPRPRPRPFKEPRP | -0.54
65 | RRIRPRPPRLPRPRPRPFKYPRP | -0.0171
66 | RRIRPRPPRLPRPRPRPFLPPRP | -0.0925

Row | Sequence | shrunken log2 fold change
67 | RRIRPRPPRLPRPRPRPFNDPRP | 0.0502
68 | RRIRPRPPRLPRPRPRPFPMPRP | -0.175
69 | RRIRPRPPRLPRPRPRPFSCPRP | -0.106
70 | RRIRPRPPRLPRPRPRPFTEPRP | -0.649
71 | RRIRPRPPRLPRPRPRPFWNPRP | -0.478
72 | RRIRPRPPRLPRPRPRPFWTPRP | -0.0762
73 | RRIRPRPPRLPRPRPRPFYAPRP | 0.02
74 | RRIRPRPPRLPRPRPRPFYKPRP | -0.25
75 | RRIRPRPPRLPRPRPRPFYVPRP | -0.459
76 | RRIRPRPPRLPRPRPRPFYYPRP | -0.838
77 | RRIRPRPPRLPRPRPRPGAAPRP | 0.552
78 | RRIRPRPPRLPRPRPRPGAFPRP | 0.293
79 | RRIRPRPPRLPRPRPRPGAPPRP | 0.536
80 | RRIRPRPPRLPRPRPRPGCCPRP | 0.343
81 | RRIRPRPPRLPRPRPRPGCDPRP | 0.309
82 | RRIRPRPPRLPRPRPRPGCEPRP | 0.113
83 | RRIRPRPPRLPRPRPRPGCQPRP | -0.0622
84 | RRIRPRPPRLPRPRPRPGDMPRP | 0.00271
85 | RRIRPRPPRLPRPRPRPGDPPRP | 0.364
86 | RRIRPRPPRLPRPRPRPGEEPRP | 0.359
87 | RRIRPRPPRLPRPRPRPGFYPRP | -0.421
88 | RRIRPRPPRLPRPRPRPGGDPRP | 0.496

Row | Sequence | shrunken log2 fold change
89 | RRIRPRPPRLPRPRPRPGGEPRP | 0.601
90 | RRIRPRPPRLPRPRPRPGHVPRP | 0.564
91 | RRIRPRPPRLPRPRPRPGICPRP | -0.0417
92 | RRIRPRPPRLPRPRPRPGILPRP | -0.557
93 | RRIRPRPPRLPRPRPRPGLAPRP | 0.841
94 | RRIRPRPPRLPRPRPRPGLVPRP | 0.287
95 | RRIRPRPPRLPRPRPRPGMNPRP | -0.0398
96 | RRIRPRPPRLPRPRPRPGMQPRP | 0.515
97 | RRIRPRPPRLPRPRPRPGTAPRP | 0.163
98 | RRIRPRPPRLPRPRPRPGTCPRP | 0.182
99 | RRIRPRPPRLPRPRPRPGVLPRP | 0.219
100 | RRIRPRPPRLPRPRPRPGYQPRP | -0.0523
101 | RRIRPRPPRLPRPRPRPHAYPRP | -0.317
102 | RRIRPRPPRLPRPRPRPHCHPRP | -0.0394
103 | RRIRPRPPRLPRPRPRPHEHPRP | 0.0125
104 | RRIRPRPPRLPRPRPRPHEIPRP | -0.192
105 | RRIRPRPPRLPRPRPRPHFHPRP | -0.191
106 | RRIRPRPPRLPRPRPRPHFWPRP | 0.482
107 | RRIRPRPPRLPRPRPRPHHAPRP | -0.125
108 | RRIRPRPPRLPRPRPRPHKCPRP | -0.19
109 | RRIRPRPPRLPRPRPRPHKLPRP | -0.109
